For assay [1], the target named is ORF74-ST/A (Kaposi's sarcoma-associated herpesvirus (KSHV)) (UniProt Q98146).
Assay [2] shares this target. The assay is described as follows: radioligand binding; whole transfected HEK293T cells, 100 pM ^125I-CXCL10 with increasing unlabeled CXCL10, 3h at 4°C, 50 mM HEPES pH 7.4, 1 mM CaCl2, 5 mM MgCl2, 0.5% BSA; washes with 0.5 M NaCl; Ki from IC50 by Cheng and Prusoff.
A further assay concerns the target ^125I-CXCL8. The assay is described as follows: radioligand binding (125I-CXCL8 homologous competition) on intact HEK293T cells. To be noted: point at the lowest unlabeled CXCL8 concentration, log [CXCL8] = -11 M; parent: est. 100; read off a plot.

For the substance CXCL8 (ligand), the PLC activation (InsP accumulation) in HEK293T, pEC50 in assay [1] is above 7.

A word on the pKi: it is the negative decadic logarithm of the Ki, by convention in mol/L. Substance “CXCL10 (from UniProt P02778 22-98) (ligand)” gave an inhibition of constitutive PLC activation (InsP accumulation) in HEK293T, pEC50 in assay [1] of 8. The pKi in assay [2] is 8.4.

Turning to “WT-ORF74 (from UniProt Q98146) S315A; S319A; S331A; S335A; S338A; T341A; T342A”, in the assay with ^125I-CXCL8, the percent of parent (% of specific binding of WT-ORF74) came out at 3.

(Values after article PMC4403821.)
